Data from PMC10352329 (2023).
Changes are numbered by the printed parent chain. Names and notes keep the numbering of the source. Blank lines part the entries; values can stand above or below the binder they belong to. Where no end group is shown, it is not given here.

How the values were obtained:
[1] = target: 180-bp unmodified nucleosome (human, UniProt P04908 1-130; P68431 1-136; P62805 1-103); experiment: MST
[2] = target: N-terminal bromodomain of human BRD4 (residues 44–168) (human, UniProt O60885 44-168); experiment: ITC
[3] = target: T1, human p300BRP (residues 1048–1282), wild type (human, UniProt Q09472 1048-1282, fluorescently labeled with a His tag Labeling Kit (microscale thermophoresis only)); experiment: ITC
T1 chain: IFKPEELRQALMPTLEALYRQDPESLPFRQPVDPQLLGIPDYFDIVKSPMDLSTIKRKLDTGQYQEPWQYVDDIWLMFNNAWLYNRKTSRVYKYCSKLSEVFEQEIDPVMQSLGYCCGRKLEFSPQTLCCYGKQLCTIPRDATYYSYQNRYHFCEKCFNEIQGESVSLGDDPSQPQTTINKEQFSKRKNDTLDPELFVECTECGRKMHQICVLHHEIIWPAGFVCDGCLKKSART

B1: human p300BRP (residues 1048–1282), 4A-substituted mutant (R1133A, K1134A, R1137A, K1140A) (domain or fragment)
chain: T1 chain with R86A, K87A, R90A, K93A
modifications: fluorescently labeled with a His tag Labeling Kit (microscale thermophoresis)
EC50 [1]: 0.0073 µM

Kd [2]: > 500 µM
Binder: KAVTK(Ac)AQK(Ac)KDGK [di-acetylated H2B peptide K20ac/K23ac]

Kd [3]: > 500 µM
Binder: PAPKK(Ac)GSK(Ac)KAVTK [di-acetylated H2B peptide K12ac/K15ac]
